Experimental data taken from the DeepSol protein solubility set.

Assay: soluble on expression in E. coli; label from the status in PepcDB or PDB records

In the case of “MAHHHHHHMHRQTAALQGSTVPAFCELLHSRGEAWLGLLGAALALPVHNATADGPSPNSFATPPSCSPSDAPALSEACSRLLSTYFIAAKAQCVEGADASMMKTLVKLTLAHTEWRTRLAMALPQRTGHPTAASSPTRAVTALIDAVAAVGLCDATLHFFTAKTLLGECVFRLLESEAWPTWAPEYCSAPLPQQAEHGVSGAFVHGEGGEPPDWQRLYAEVSHRTRLVPASMHTTEPPSPAFSILQLAQDLQDHLERTVQQSHLALSFTEGGV”, the “soluble on expression in E. coli” value was “not soluble”.

With “MHSPDPFTDHPDSDDSFEKFVPTPNVNRRRSDAIIVSDEGSFDGITGYSQVTVIENCPNTTVLEDENKRANPDDTITRMLESSDEEDETENNSDNDALADLLKSFRTEDQKRKEVDIEQAANISIDIFGDLIEEVDSEHEAAEYPDREGGNSMDKQGTMLPVEVPIQNNIKLIPRKRRLEPKSYDCEPSTSAAHGPVGVVSSDSGEYWNQQKTITIHGQNFEINNFNDYMRMKITKLNHQVNHGYAKPLENVSRIMEGFSVFVNGYTDPPALVIRDLMISHGGEYHCYYQHGITSYTIASSIATAKINRIRENEIFIKADWITESIAAGKPLDYRDFLIYEKGSVEKGQMQQFLTISTRNTGGNNETTSSNQFSDARNPNFIRDYYARSRLHLISTLAQDMKDFVANLKLEGKLTEKCFEEKELIDMKSLSNEISRESTVFHVDLDCFFVSVAVRNRIDLKHKEVAITHSKGTISNSMSEVASCSYAARDCGVKNGMLVRDALQKCPQLTLLPYQFEDYVQVSRKIYEILASYTLEVRAVSCDEMYINMSSFCEKYEINDPTILAEHIRKVIREKTQCPASVGIGSTSLLARLATRHAKPDGVFWVNAHKKNEFISEEKVKDLPGFGYEMMNRLTSFFGDITKCRELQLKTERELVPVFGPKLASKILRQCRGIEEDPDDFWATHVRKSVSCDINYGIRFTKRGEVIQLMTAIGAELERKLIDSKLTAGSITLKLMVRSANAPIQTSKFMGHGICDTFTKTCNLNVPTTRGESLTSEAMKLYAKVSPKVEDLRGVGVTCGKLKSKLKKDAATAVQEMFGKTSRVGNMARTDEQLNIIPRNEDELDKEPVIIPAVTEDLEVQSIPRQINFRVANDIDIPEIVKSTLLNGRSDNNLELEDLEDDGLVENRLAELECIIQNEPTKESVTNLQEMLSTLLNYGKLSAFETVFRKFEEISMDSSRCDTAWFSVFHLMVPFIEEESKDLLEFPIATTRNLGAMIASNTDNTSISSPEPFVPKEVFVIDSTKHT” the “soluble on expression in E. coli” value was “not soluble”.

In the case of “MKIAIIGYSGSGKSTLANFLGQHYNCEVLHLDKIHFTSNWQERTVDEMTDDISTFMLQSDWIIEGNYSACLYEERMREADCIVYFNFNRVNCLYRAFRRYLTYRGKTRPSMAEG”, the “soluble on expression in E. coli” value was “not soluble”.

For “MATRLNISFDSDLLESISSEFDLRAPNKEALRQLVFTLDGDYEPSIMQVLNLATGVGKTYLMAAFVEYLRRQGVGNVVIVTPGKTVQAKTVQNFTPGSPRYITGSVVPPEVVTPQDYSAWVARQNGAAQLSFGHEVPILAFIFNIQQLIAPKSTEGDTHGNTQDAMRRKPRRFDENAGVLFDYLKGLDDLVVIADESHLYGSSAIAFNAALKELDPAATIGLTASVDKKSDHVIYHYPLFRAIQDKYVKAPVLAFRKTGYGTDEASEEQQLRDALQLRSIKQVYYDSFAASENRKHVNAVVFVVCSDVDHATQVTELLRSPEYLGNDDAVLQVDSKHEDELTQRRLNELDRPHSPVLAVVSVNKLKEGWDVRNIAVVVTLRAMASEVLTQQTMGRGLRLPFGHYTGVWQIDQLDIIAHQSFTELLNAENVLHQFGLEEAVADLDKAQVEAAILKAAETATSPRLGTSLTDTGVIQPGDVAAHEAGVWLIGDSSNSDDLQAGIVPVGGENSTRTPSVGVREITDPAPEGGTGWELVSIERNPAFADVTYQFPVTTMTVQQPSIDLSEIGDDTIEQAARRVTSAGDVLLRKEIIAVLGKKLRAEDRESAEVDSVHVDEDDAKNALVKLVLNMSLVPKTEQTARYVAAFLVPKFMQSVMFSGWTVKSLDSARTELLKLIQNYTVETLRSTREVPSIHPKSMPSNGYTLPLGQKVHDQIETREQFVRSQVYGGWFKSLFAEESFDSFTGEYQLARLLNTSPGIVWWHRLHPQDQAFVFYNAKDRYFPDFVAMDVNGVHWIIEGKSERGRDDAQVQAKRKAAEALVRRLVAEDAYADQLWGYLIAYEQDIARADSWEDLKAFASPVNNAL”, the “soluble on expression in E. coli” value was “not soluble”.

In the case of “SQVDVKDCANHEIKKVLVPGCHGSEPCIIHRGKPFQLEAVFEANQNTKTAKIEIKASIDGLEVDVPGIDPNACHYMKCPLVKGQQYDIKYTWNVPKIAPKSENVVVTVKVMGDDGVLACAIATHAKIRD”, the “soluble on expression in E. coli” value was “soluble”.

In the case of “MEDLIDGIIFAANYLGSTQLLSDKTPSKNVRMMQAQEAVSRIKMAQKLAKSRKKAPEGESQPMTEVDLFILTQRIKVLNADTQETMMDHPLRTISYIADIGNIVVLMARRRIPRSNSQENVEASHPSQDGKRQYKMICHVFESEDAQLIAQSIGQAFSVAYQEFLRANGINP”, the “soluble on expression in E. coli” value was “soluble”.

For “MSLGQVEVIDRRQSVFGDDIQLQKRSSSYEIISNGVFLMSTENGRSEREMVTLGAQHMKNAVHSVLIGGLGVGITADEAVHLNDHVQVHVVEIEPSVVEWQYRYLYPFSNQALEHERTAIIISDIQQWLRTNERTYDLICLDTDNGPDWMVHKQNASLYGKIGLELVRERVRVGGAVSFWSASASESFLHELETLFDRVYEHAVSISHTLPPDYVYVACREGHHHHHH”, the “soluble on expression in E. coli” value was “not soluble”.

For “MAHHHHHHMRRWGAAGPLRSGLQLRQVASAARRRQPAQLKIPISDAPAHVKAMERPRSKLETPAAYSSFRSTETIEEFRENYKYLAAGERETSVTARVAGRITSLRDMGKMLFATVRSSGVDLQLVVHVGEHFTRDCLKQLRASLRVGDIVGAEGIPCRMQRGELSLAASRVEVLAPYVCRDQVVCPDLRGFTQLQDNDVRYRYRFVDMMTNRSVIDTIRKRHTVLQSLREYLDMRHFVEVETPILHTVASGANAKPFVTHHNANNADLFLRVAPELYLKQCVVGGLERVYEIGKVFRNEDADRSHNPEFTTCEFYAAYHTYEDLITMTEDIFRHLALRANGTTQLQIQCERAGITREIDLGATFRRISVYDEIQSASGVELPPPNELNTPKGLAYMSAIMLRHDIQFPAVRTAAKMFDKLIDFFITSHIVEPTFVMDHPIFMSPLAKEHSSRPGLAERFELFINGIEYCNAYSELNDPQEQCHRFQQQLIDRQGGDEEAMPLDETFLKSLQVGLPPTAGWGMGIDRVVMLLSGSSTIRDGIIFPLLRQDTRSHDCKRRHRVATFFDFNHQMALLCLSGVEQEMKRRGFPEASCAHIRELRQTIRDLGQRSGESDLTNFNCGEWWPGLTKTMIRLMCGRPRS”, the “soluble on expression in E. coli” value was “not soluble”.

In the case of “STYEYKRELREGARGKWINLRQHLNSGTRLEKELIKVDRQIDKKAAEIKEIEDLLFKIEQYKAENNIR”, the “soluble on expression in E. coli” value was “not soluble”.

With “MTDEQRSGSRRRGGALGGGRGGNSQNSGRKRSSNSPADSASSSQKTSRNPSQNRPPMNIVPQKVTILKRNQDSQPTSPINRNAPPGPLVAAVQPLMAVELGDSGASLKGWNSNPTTPEKTTINVAGRQAEANKKQTQEYYFSKNAGSAVSAQTFQETVQYPMSSFPLEKNVPIQIDNNFTLLITPTTSKCNGLFIKVKLQHGDDNITTGALLKLDADEKTIRKSCRETIENLLKAKSSSDRFPFSKCSEGFLTSCLIKKLVDRLEAFPEAIYYCEKCDYHINTIGHAKAHLESSTHFDDVKRQEQREHLLKIIPPPTEAHLESVEKVLEGTLKSYQQVRQNGIEIGETIIYYLSTTVFPSIGLQDVILRPFGSVTYDVTLPDSDYNVAYTMSIPEGTPIFALLEQVRKKIADDGHPADHSMEMGTPSTIIFTFKGVRVKLCWMSCFNHRIQLHFSELMKTYVNLREEVAQFLQLIRLWATKAGLDSKNKPRIGLPRYGFDIMAIHFLQQIGCLPVLHELFEAGPETEKIEEMSAEKTAKLQSEEAGQRRMRLMSRYEKNTEKIGTKFDLKKSWNLAELFIGFFRYYVERHRDVVIQITQLIPMSRDVSRWNKKILHVVDPFRGDNVLSIPKVSTWQPFFFNCLLTSFVSFSIPRTKNGPLIEVSFVHNKTIKPGKKFKDTPKKATVEAPIPLTQIMEEHYQEPVYEIVNDKDHLKYMKELKERLMIDGILVNERKPIDYHTDDHRECVYGRNSLLRFKRVLKPGLNGKMAASMDGLSFVTKKGKKFINRWKKANVIILSEDSSEIDEKTKAADSNVSEIAEKLEETLKISSQKNIDVAVTSMPVSTEIKPEPITKLSNEAPVKIKNVAQPQCDLIEAPQESLMNESMMESSFDETESPMKTPIVQKPVKQNATFGKSTISTVIPDKQFCSEEFFIKLNSNLKDIVSKSKSLKPSDFHYEFSTDLFCGDFEMEMKCTHCDGSHCVENCPMMEIPPIKKYQARTPEDLKDIDDMIDKYYHENILDERRLKMLDHKIDELQSFLRKNYREDVTLTTFGSVMTGLSVNCSDIDICLRFGDGDVPPKDLTAKEVIQKTESVLRKCHLVKRVQAIVTAKVPIVKFQVKLSNGAIIDVDISYYNILAIYNTALLKEYSLWTPDKRFAKLALFVKTWAKNCEIGDASRGSLSSYCHVIMLISYLQNCDPPVLPRLQEDFRSDNRERRLVDNWDTSFAQVETSLLQRWPKNKESCAQLLIGYFDYYSRFDFRNFVVQCRREMILSKMEKEWPRPLCVEDPFDLSHNLSSGVNKKMFVFIMKVFINSRAVFMSEKPPMNRDHTFLSSYQHQLLRKCNQGSAPTDRQCHQCHRIGHFVESCPQRALAKEARKRFGSNSTNSSYRSNDSGRGFKNGEEGGDRLTYHKRTYYHRSYNK” the “soluble on expression in E. coli” value was “not soluble”.

In the case of “SAALTAEHFVALQSLLKASSKDVVRQLCQESFSSSCLDSESLLDKTCSSLSVPQGEAAQLLQALHHFTRLVAFRDLSSAEAILALFPENFHQNLKNLLTKIIVEHISTWRAEAQANQISLPRLVDLDWRVDIKTSSDNISRMAVPTCLLQMKIQEDPSLCGEKPSISAVTMELSKETLDTMLDGLGRIRDQLSAVANK”, the “soluble on expression in E. coli” value was “soluble”.

In the case of “MGSDKIHHHHHHGCSDVNQLLGNEESVDYKSTRRGDPLSIPPDLTQANNDPRYKAPASGTATYSQFQQQGLQQQASAGQNTNVLPERADMRVERDGDLRWLVIERPPEQLFPKVVDFWTDTGFTVSVNNPQAGIIETDWAENRAKIPESWLRQVLGSVLETAWDSGEREKFRTRVERVNGHTEIYITHNQMLEKRVGSDGGQVQWTHGKEDPGLNAAMLARLMVYLGTDVDAARKLVAQAEAAPQAPKVQSVRAEGAMLVVDESFDRAWRRVGVALDSGGFAVDDRDRSAGEYFVRYVDTDTGAQNEQPGFFSRLFSSDKKAQAPQYRIRLTGSGTQTQVTVLDANGQRDSSATAQRMLSVLKDKMV”, the “soluble on expression in E. coli” value was “not soluble”.

In the case of “FSDISSLQRFVKFSQSDWLVEMLAQERFTSHFQPIVSMKNTSEIYGYEALLRGLDEQGNLIPPQPIVELATEAGLLPQLDRIARLSTIAQFSSHQVSGQIFINFAPTAVYDPASCLKSTVEAIDQAGISHERVVFEVVESDSPQDLDHLKAVLKYYRDAGFSIALDDLGSGYSSLNLLHQLRPDFIKLDMELIRDVHQDLYKASITEKLLEIAQKLNIRTVAEGIECIEELNWVQERGATFAQGYLIAKP”, the “soluble on expression in E. coli” value was “not soluble”.

With “TEERLKEIEAKYDEIAKDWPKKVKHVLHEEHELELTRVQVYTCDKCEEEGTIWSYHCDECDFDLHAKCALNEDTKE” the “soluble on expression in E. coli” value was “soluble”.

For “MGSDKIHHHHHHMRFYPWLQWLKRKTAGAGCVHQFIQTQCPAPAESGTQEPPPAEQDTQTESNAMPSLALRIGDKNFRATLYDNDSTRSLLKKLPLTLTMDELNGNEKFYFFSEKLPSASERVGSIKTGDLMLYGSDCLVLFYESFPTSYSYTRLGTVDDVTGLANALGSGSVEVTFSIN”, the “soluble on expression in E. coli” value was “not soluble”.
